From the supplement of paper PMC9112550, “Optimization of the antimicrobial peptide Bac7 by deep mutational scanning” (BMC Biology, 2022)

system: Escherichia coli TOP10; test: shrunken log2 fold change of peptide-encoding DNA abundance (4.5 h post-induction vs induction); higher = less antimicrobial activity (less host growth inhibition); conditions: time post-induction: 4.5 h; library: site-saturation at positions 5, 18, 19, 20
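Note: peptides expressed intracellularly from a pBAD plasmid library in pooled LB shake-flask culture, induced with 0.3% L-arabinose, DNA abundance read by NGS, three biological replicates, DESeq2 with apeglm shrinkage.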

| Sequence | shrunken log2 fold change |
| --- | --- |
| RRIRQRPPRLPRPRPRPLECPRP | -0.184 |
| RRIRMRPPRLPRPRPRPFYMPRP | -0.054 |
| RRIRDRPPRLPRPRPRPVDIPRP | -0.0995 |
| RRIRLRPPRLPRPRPRPSEKPRP | -0.0219 |
| RRIRFRPPRLPRPRPRPWNIPRP | -0.0965 |
| RRIRWRPPRLPRPRPRPIAIPRP | -0.347 |
| RRIRMRPPRLPRPRPRPIKYPRP | 0.188 |
| RRIRGRPPRLPRPRPRPDFLPRP | 0.318 |
| RRIRLRPPRLPRPRPRPDSWPRP | -0.139 |
| RRIRFRPPRLPRPRPRPCFQPRP | -0.227 |
| RRIRGRPPRLPRPRPRPVGHPRP | 0.453 |
| RRIRYRPPRLPRPRPRPGMHPRP | -0.339 |
| RRIRCRPPRLPRPRPRPWVKPRP | -0.352 |
| RRIRSRPPRLPRPRPRPNWAPRP | 0.64 |
| RRIRERPPRLPRPRPRPQCQPRP | 0.158 |
| RRIRLRPPRLPRPRPRPHDIPRP | -0.618 |
| RRIRKRPPRLPRPRPRPFGTPRP | -0.0368 |
| RRIRARPPRLPRPRPRPHGRPRP | 0.0226 |
| RRIRGRPPRLPRPRPRPFLNPRP | 0.18 |
| RRIRIRPPRLPRPRPRPHHAPRP | 0.0597 |
| RRIRHRPPRLPRPRPRPCSTPRP | -0.337 |
| RRIRWRPPRLPRPRPRPKPHPRP | 0.351 |
| RRIRMRPPRLPRPRPRPYMPPRP | -0.312 |
| RRIRYRPPRLPRPRPRPTVCPRP | -0.0618 |
| RRIRIRPPRLPRPRPRPELYPRP | -0.0779 |

| Sequence | shrunken log2 fold change |
| --- | --- |
| RRIRTRPPRLPRPRPRPKRIPRP | 0.0762 |
| RRIRERPPRLPRPRPRPQELPRP | -0.755 |
| RRIRIRPPRLPRPRPRPSCSPRP | -0.83 |
| RRIRSRPPRLPRPRPRPYFYPRP | -0.695 |
| RRIRIRPPRLPRPRPRPCEVPRP | 0.0421 |
| RRIRVRPPRLPRPRPRPWPIPRP | -0.0661 |
| RRIRGRPPRLPRPRPRPVQVPRP | 0.215 |
| RRIRIRPPRLPRPRPRPRIPPRP | -0.324 |
| RRIRERPPRLPRPRPRPATWPRP | -0.014 |
| RRIRWRPPRLPRPRPRPESIPRP | 0.2 |
| RRIRVRPPRLPRPRPRPMNKPRP | -0.403 |
| RRIRGRPPRLPRPRPRPMVFPRP | 0.78 |
| RRIRIRPPRLPRPRPRPKAYPRP | -0.124 |
| RRIRPRPPRLPRPRPRPVVHPRP | -0.205 |
| RRIRYRPPRLPRPRPRPHIWPRP | -0.272 |
| RRIRPRPPRLPRPRPRPDKRPRP | 0.00792 |
| RRIRERPPRLPRPRPRPIVRPRP | -0.0604 |
| RRIRWRPPRLPRPRPRPLVAPRP | 0.815 |
| RRIRVRPPRLPRPRPRPITTPRP | -0.304 |
| RRIRHRPPRLPRPRPRPKPNPRP | 0.225 |
| RRIRQRPPRLPRPRPRPPNLPRP | -0.00283 |
| RRIRFRPPRLPRPRPRPENDPRP | 0.0619 |
| RRIRFRPPRLPRPRPRPLGPPRP | 0.148 |
| RRIRYRPPRLPRPRPRPPTSPRP | -0.0241 |
| RRIRWRPPRLPRPRPRPHDHPRP | -0.152 |

| Sequence | shrunken log2 fold change |
| --- | --- |
| RRIRGRPPRLPRPRPRPWIQPRP | 0.0532 |
| RRIRARPPRLPRPRPRPEYLPRP | -0.00441 |
| RRIRHRPPRLPRPRPRPFYLPRP | -0.915 |
| RRIRWRPPRLPRPRPRPFHRPRP | -0.2 |
| RRIRKRPPRLPRPRPRPLKGPRP | -0.022 |
| RRIRIRPPRLPRPRPRPPLNPRP | -0.227 |
| RRIRHRPPRLPRPRPRPHCNPRP | -0.158 |
| RRIRPRPPRLPRPRPRPWRQPRP | 0.0206 |
| RRIRWRPPRLPRPRPRPLAHPRP | 0.29 |
| RRIRIRPPRLPRPRPRPRDIPRP | -0.203 |
| RRIRYRPPRLPRPRPRPQIHPRP | -1.2 |
| RRIRFRPPRLPRPRPRPCGWPRP | 0.42 |
| RRIRQRPPRLPRPRPRPHLQPRP | -0.0325 |
| RRIRRRPPRLPRPRPRPCNKPRP | -0.137 |
| RRIRKRPPRLPRPRPRPTLFPRP | 0.111 |
| RRIRSRPPRLPRPRPRPSDMPRP | -0.373 |
| RRIRCRPPRLPRPRPRPTLQPRP | 0.279 |
| RRIRVRPPRLPRPRPRPANIPRP | -0.156 |
| RRIRFRPPRLPRPRPRPSRTPRP | 0.0872 |
| RRIRHRPPRLPRPRPRPNQIPRP | -0.327 |
| RRIRERPPRLPRPRPRPDCCPRP | -0.157 |
| RRIRWRPPRLPRPRPRPPPAPRP | 1.2 |
| RRIRPRPPRLPRPRPRPPYAPRP | 0.193 |
| RRIRTRPPRLPRPRPRPFRHPRP | 0.00803 |
| RRIRIRPPRLPRPRPRPPDGPRP | 1.84 |

| Sequence | shrunken log2 fold change |
| --- | --- |
| RRIRQRPPRLPRPRPRPSEVPRP | -0.022 |
| RRIRIRPPRLPRPRPRPRWQPRP | 0.128 |
| RRIRYRPPRLPRPRPRPSPNPRP | -1.34 |
| RRIRERPPRLPRPRPRPVCPPRP | -0.162 |
| RRIRQRPPRLPRPRPRPIKPPRP | 0.0492 |
| RRIRMRPPRLPRPRPRPIGGPRP | 0.0689 |
| RRIRMRPPRLPRPRPRPHRYPRP | -0.144 |
| RRIRERPPRLPRPRPRPNLCPRP | -0.13 |
| RRIRKRPPRLPRPRPRPKKEPRP | 0.00375 |
| RRIRYRPPRLPRPRPRPHRWPRP | -0.0477 |
| RRIRDRPPRLPRPRPRPSRNPRP | 0.326 |
| RRIRSRPPRLPRPRPRPHNNPRP | -0.751 |
| RRIRIRPPRLPRPRPRPNIQPRP | -1.03 |
| RRIRFRPPRLPRPRPRPYTTPRP | -0.333 |
| RRIRNRPPRLPRPRPRPRVPPRP | -0.134 |
| RRIRPRPPRLPRPRPRPRPQPRP | 0.634 |
| RRIRARPPRLPRPRPRPFINPRP | -0.356 |
| RRIRQRPPRLPRPRPRPWGRPRP | 0.00592 |
| RRIRGRPPRLPRPRPRPPPHPRP | 1.26 |
| RRIRWRPPRLPRPRPRPYDDPRP | -0.321 |
| RRIRMRPPRLPRPRPRPHWHPRP | 0.0139 |
| RRIRMRPPRLPRPRPRPQNCPRP | 0.0712 |
| RRIRNRPPRLPRPRPRPRHHPRP | -0.246 |
| RRIRGRPPRLPRPRPRPFDIPRP | 0.198 |
| RRIRTRPPRLPRPRPRPIIVPRP | -0.0629 |

| Sequence | shrunken log2 fold change |
| --- | --- |
| RRIRWRPPRLPRPRPRPKMEPRP | 0.577 |
| RRIRYRPPRLPRPRPRPWGSPRP | -0.482 |
| RRIRARPPRLPRPRPRPHPAPRP | 0.478 |
| RRIRGRPPRLPRPRPRPHCWPRP | 0.69 |
| RRIRRRPPRLPRPRPRPQYWPRP | -0.147 |
| RRIRKRPPRLPRPRPRPKWRPRP | 0.887 |
| RRIRSRPPRLPRPRPRPNVYPRP | -0.257 |
| RRIRMRPPRLPRPRPRPEMGPRP | 2.44 |
| RRIRRRPPRLPRPRPRPYIDPRP | -0.339 |
| RRIRLRPPRLPRPRPRPLFRPRP | -0.388 |
| RRIRFRPPRLPRPRPRPMSYPRP | -0.138 |
| RRIRPRPPRLPRPRPRPLRLPRP | 0.2 |
| RRIRARPPRLPRPRPRPTVFPRP | 0.0832 |
| RRIRTRPPRLPRPRPRPISPPRP | -0.357 |
| RRIRHRPPRLPRPRPRPQCLPRP | -0.0192 |
| RRIRPRPPRLPRPRPRPDSDPRP | 0.0303 |
| RRIRGRPPRLPRPRPRPNTVPRP | -0.0703 |
| RRIRGRPPRLPRPRPRPTICPRP | 0.601 |
| RRIRPRPPRLPRPRPRPIAEPRP | -0.0633 |
| RRIRVRPPRLPRPRPRPDYRPRP | -0.00433 |
| RRIRLRPPRLPRPRPRPVPDPRP | 0.00559 |
| RRIRTRPPRLPRPRPRPWQHPRP | -0.0511 |
| RRIRKRPPRLPRPRPRPMSPPRP | -0.0332 |
| RRIRPRPPRLPRPRPRPYFDPRP | -0.561 |
| RRIRMRPPRLPRPRPRPFGAPRP | 0.329 |

| Sequence | shrunken log2 fold change |
| --- | --- |
| RRIRCRPPRLPRPRPRPPEEPRP | 0.301 |
| RRIRARPPRLPRPRPRPSEKPRP | -0.312 |
| RRIRKRPPRLPRPRPRPEHYPRP | 0.0532 |
| RRIRWRPPRLPRPRPRPYWVPRP | -0.294 |
| RRIRARPPRLPRPRPRPRCKPRP | 0.51 |
| RRIRFRPPRLPRPRPRPTELPRP | -0.161 |
| RRIRLRPPRLPRPRPRPTVTPRP | -0.0848 |
| RRIRLRPPRLPRPRPRPDEDPRP | 0.0258 |
| RRIRIRPPRLPRPRPRPRVNPRP | -0.603 |
| RRIRNRPPRLPRPRPRPYDWPRP | 0.0127 |
| RRIRERPPRLPRPRPRPHFPPRP | -0.151 |
| RRIRTRPPRLPRPRPRPRTPPRP | 0.138 |
| RRIRDRPPRLPRPRPRPYFVPRP | -0.362 |
| RRIRQRPPRLPRPRPRPNQTPRP | -0.0346 |
| RRIRVRPPRLPRPRPRPPGKPRP | 0.0564 |
| RRIRSRPPRLPRPRPRPHIYPRP | -0.607 |
| RRIRWRPPRLPRPRPRPWNSPRP | 0.0293 |
| RRIRQRPPRLPRPRPRPDPRPRP | -0.00604 |
| RRIRWRPPRLPRPRPRPSRNPRP | -0.0585 |
| RRIRLRPPRLPRPRPRPDYQPRP | -0.137 |
| RRIRSRPPRLPRPRPRPNIDPRP | -0.204 |
| RRIRDRPPRLPRPRPRPPDRPRP | 0.468 |
| RRIRKRPPRLPRPRPRPCYPPRP | -0.446 |
| RRIRPRPPRLPRPRPRPWMGPRP | -0.114 |
| RRIRYRPPRLPRPRPRPPPRPRP | 1.5 |
